Where two headings read alike, the source gives them in different places. Values belong to the binder of their own block, whether it stands above or below them.
What was measured:
[1] = molecular target: T1, huIL-18Rβ-HisAvi (human, UniProt O95256 20-356, biotinylated in the Octet blocking assay); assay: SPR screen, 1:1 fit
T1 construct: Soluble analyte in all SPR runs; captured on streptavidin sensors in the Octet assay; also called human IL-18Rβ; human IL-18Rβ-Avi-His
T1 sequence: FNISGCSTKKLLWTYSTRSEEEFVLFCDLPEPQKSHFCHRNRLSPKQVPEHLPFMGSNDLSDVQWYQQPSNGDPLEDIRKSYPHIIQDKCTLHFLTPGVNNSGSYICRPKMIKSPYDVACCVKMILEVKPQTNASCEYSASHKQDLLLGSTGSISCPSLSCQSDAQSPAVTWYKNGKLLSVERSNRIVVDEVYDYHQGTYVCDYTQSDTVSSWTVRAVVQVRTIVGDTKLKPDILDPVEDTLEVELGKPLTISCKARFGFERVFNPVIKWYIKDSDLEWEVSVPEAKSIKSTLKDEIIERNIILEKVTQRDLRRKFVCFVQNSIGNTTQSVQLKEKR

[2] = molecular target: T1, huIL-18Rβ-HisAvi; assay: SPR Biacore T200, mAb captured on anti-human Fc, huIL-18Rβ-HisAvi as analyte, PBST pH 6.0, 37 °C, 1:1 Binding fit
[3] = molecular target: T2, human IL-18Rβ on cells (human, UniProt O95256 20-599); assay: cell-based or functional assay
T2 sequence: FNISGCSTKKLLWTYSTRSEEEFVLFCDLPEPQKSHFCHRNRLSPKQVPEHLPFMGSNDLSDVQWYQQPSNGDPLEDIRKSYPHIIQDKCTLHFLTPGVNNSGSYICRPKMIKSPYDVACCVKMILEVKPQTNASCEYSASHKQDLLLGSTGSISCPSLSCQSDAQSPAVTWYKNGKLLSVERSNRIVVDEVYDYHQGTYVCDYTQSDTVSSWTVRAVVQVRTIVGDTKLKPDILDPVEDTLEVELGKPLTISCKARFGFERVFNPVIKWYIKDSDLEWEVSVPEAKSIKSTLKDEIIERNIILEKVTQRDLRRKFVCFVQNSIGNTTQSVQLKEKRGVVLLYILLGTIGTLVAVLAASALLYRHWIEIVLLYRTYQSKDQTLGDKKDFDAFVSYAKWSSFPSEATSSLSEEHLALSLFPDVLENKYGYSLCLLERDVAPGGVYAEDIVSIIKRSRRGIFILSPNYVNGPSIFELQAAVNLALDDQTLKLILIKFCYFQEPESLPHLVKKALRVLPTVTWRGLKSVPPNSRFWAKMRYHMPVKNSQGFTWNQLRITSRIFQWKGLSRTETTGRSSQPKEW

[4] = molecular target: T1, huIL-18Rβ-HisAvi; assay: SPR T200, pH 7.4; sample stored at pH 6, 4 w 40C
[5] = molecular target: T1, huIL-18Rβ-HisAvi; assay: SPR T200, mAb on anti-hFc, 37C, pH 7.4
[6] = molecular target: T2, human IL-18Rβ on cells; assay: cell-based or functional assay; remark: listed apart in the source
[7] = molecular target: T1, huIL-18Rβ-HisAvi; assay: SPR T200, pH 7.4; sample stored at pH 8, T0
[8] = molecular target: T1, huIL-18Rβ-HisAvi; assay: SPR T200, mAb on anti-hFc, 37C, pH 7.4; remark: listed apart in the source
[9] = molecular target: T1, huIL-18Rβ-HisAvi; assay: SPR Biacore T200, mAb captured on anti-human Fc, huIL-18Rβ-HisAvi as analyte, PBST pH 5.5, 37 °C, 1:1 Binding fit
[10] = molecular target: T1, huIL-18Rβ-HisAvi; assay: SPR T200, pH 5 against pH 7.4
[11] = molecular target: T1, huIL-18Rβ-HisAvi; assay: SPR T200, mAb on anti-hFc, 37C, pH 7.4; sample stored at pH 6, T0
[12] = molecular target: T1, huIL-18Rβ-HisAvi; assay: SPR T200, mAb on anti-hFc, 37C, pH 6
[13] = molecular target: T1, huIL-18Rβ-HisAvi; assay: SPR T200, pH 7.4; sample stored at pH 8, 4 w 40C
[14] = molecular target: T1, huIL-18Rβ-HisAvi; assay: SPR T200, mAb on anti-hFc, 37C, pH 5
[15] = molecular target: the molecule itself; assay: clone self-interaction BLI, antibody on AHQ sensor against 1 µM of the same antibody
[16] = molecular target: T1, huIL-18Rβ-HisAvi; assay: SPR T200, pH 7.4; sample stored at pH 8, 4 w 4C
[17] = molecular target: T1, huIL-18Rβ-HisAvi; assay: SPR T200, pH 7.4; sample stored at pH 6, 4 w 4C
[18] = molecular target: T2, human IL-18Rβ on cells; assay: cell-based or functional assay; remark: listed apart in the source
[19] = molecular target: T2, human IL-18Rβ on cells; assay: cell-based or functional assay; remark: listed apart in the source
[20] = molecular target: T1, huIL-18Rβ-HisAvi; assay: SPR T200, mAb on anti-hFc, 37C, pH 6; remark: listed apart in the source
[21] = molecular target: T3, cyIL-18Rβ-HisAvi (cynomolgus monkey); assay: SPR T200, mAb on anti-hFc, 37C, pH 6
T3 construct: Soluble analyte in SPR; also called cyno IL-18Rβ; cynomolgus monkey IL-18Rβ
T3 chain: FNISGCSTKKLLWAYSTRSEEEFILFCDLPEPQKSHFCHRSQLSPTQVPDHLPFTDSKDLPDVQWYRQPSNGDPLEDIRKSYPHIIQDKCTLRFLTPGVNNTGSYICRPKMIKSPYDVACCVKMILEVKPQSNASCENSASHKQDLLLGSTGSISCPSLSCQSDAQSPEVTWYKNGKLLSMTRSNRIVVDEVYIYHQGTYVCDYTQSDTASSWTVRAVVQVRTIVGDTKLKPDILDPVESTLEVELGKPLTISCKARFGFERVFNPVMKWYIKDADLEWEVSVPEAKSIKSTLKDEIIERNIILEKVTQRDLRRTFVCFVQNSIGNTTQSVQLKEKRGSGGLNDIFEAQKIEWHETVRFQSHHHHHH

[22] = molecular target: T1, huIL-18Rβ-HisAvi; assay: SPR T200, mAb on anti-hFc, 37C, pH 7.4; remark: listed apart in the source
[23] = molecular target: T3, cyIL-18Rβ-HisAvi; assay: SPR T200, mAb on anti-hFc, 37C, pH 7.4
[24] = molecular target: T1, huIL-18Rβ-HisAvi; assay: SPR T200, pH 7; sample T0
[25] = molecular target: T1, huIL-18Rβ-HisAvi; assay: SPR T200, pH 7; sample 4 w 40C
[26] = molecular target: T1, huIL-18Rβ-HisAvi; assay: SPR T200, pH 7; sample 4 w 4C
[27] = molecular target: T1, huIL-18Rβ-HisAvi; assay: SPR T200, pH 7; sample 2 w 40C

- Kd [1]: 0.094 nM
- Kd [2]: 1.24 nM
- koff [2]: 0.000504 s⁻¹
- kon [2]: 405000 M⁻¹ s⁻¹
- IC50, LPS+IL-12 dependent IFNg production, human whole blood [3]: 0.3 nM
- y-max, LPS+IL-12 dependent IFNg production, human whole blood [3]: 98%
- Kd [4]: 0.6 nM
- koff [4]: 0.00044 s⁻¹
- kon [4]: 730000 M⁻¹ s⁻¹
- Kd [5]: 1.2 nM
- koff [5]: 0.00038 s⁻¹
- kon [5]: 310000 M⁻¹ s⁻¹
- IC50, LPS+IL-12 dependent IFNg production, human whole blood [6]: 1.12 nM
- Kd [7]: 0.85 nM
- koff [7]: 0.00046 s⁻¹
- kon [7]: 540000 M⁻¹ s⁻¹
- Kd [8]: 0.96 nM
- koff [8]: 0.0005 s⁻¹
- kon [8]: 520000 M⁻¹ s⁻¹
- Kd [9]: 1.08 nM
- koff [9]: 0.000511 s⁻¹
- kon [9]: 472000 M⁻¹ s⁻¹
- KD ratio (KD pH 5/KD pH 7) [10]: 0.33
- kd ratio (kd pH 5/kd pH 7) [10]: 0.57
- Kd [11]: 0.83 nM
- koff [11]: 0.00047 s⁻¹
- kon [11]: 570000 M⁻¹ s⁻¹
- Kd [12]: 0.18 nM
- koff [12]: 0.00024 s⁻¹
- kon [12]: 1.4e+06 M⁻¹ s⁻¹
- Kd [13]: 0.78 nM
- koff [13]: 0.00046 s⁻¹
- kon [13]: 590000 M⁻¹ s⁻¹
- Kd [14]: 0.41 nM
- koff [14]: 0.00022 s⁻¹
- kon [14]: 530000 M⁻¹ s⁻¹
- Kd [16]: 0.81 nM
- koff [16]: 0.00043 s⁻¹
- kon [16]: 520000 M⁻¹ s⁻¹
- Kd [17]: 0.8 nM
- koff [17]: 0.00045 s⁻¹
- kon [17]: 570000 M⁻¹ s⁻¹
- IC50, IL-18-induced IFNγ release, KG-1 cells [18]: 0.3 nM
B1: P8 (antibody, human IgG1, kappa)
heavy: QVQLVQSGAEVKKPGASVRVSCKASGYTFTSYYMHWVRQAPGQGLEWMGIINPRGGYTTYAQKFQGRVTMTRDTSTSTVYMELSSLRSEDTAVYYCAKEGRVSPTDYYGMDVWGQGTTVTVSSASTKGPSVFPLAPSSKSTSGGTAALGCLVKDYFPEPVTVSWNSGALTSGVHTFPAVLQSSGLYSLSSVVTVPSSSLGTQTYICNVNHKPSNTKVDKRVEPKSCDKTHTCPPCPAPEAEGAPSVFLFPPKPKDTLMISRTPEVTCVVVDVSHEDPEVKFNWYVDGVEVHNAKTKPREEQYNSTYRVVSVLTVLHQDWLNGKEYKCKVSNKALPAPIEKTISKAKGQPREPQVYTLPPSREEMTKNQVSLTCLVKGFYPSDIAVEWESNGQPENNYKTTPPVLDSDGSFFLYSKLTVDKSRWQQGNVFSCSVMHEALHNHYTQKSLSLSPG
light: not shown
notes: Human IgG
- Average CSI-BLI ΔResponse [15]: -0.01 nm

- Average IC50, LPS+IL-12 dependent IFNg production, human whole blood [19]: 1.52 nM
- Kd [20]: 0.36 nM
- koff [20]: 0.00014 s⁻¹
- kon [20]: 390000 M⁻¹ s⁻¹
- Kd [21]: 2.4 nM
- koff [21]: 0.00042 s⁻¹
- kon [21]: 180000 M⁻¹ s⁻¹
- Kd [22]: 0.72 nM
- koff [22]: 0.00019 s⁻¹
- kon [22]: 270000 M⁻¹ s⁻¹
- Kd [23]: 1.5 nM
- koff [23]: 0.0003 s⁻¹
- kon [23]: 200000 M⁻¹ s⁻¹
B2: P20-V3 (antibody, human IgG1, kappa, V domains shown)
VH: QVQLQESGPGLVKPSETLSLTCTVSGGSINNYYWSWIRQPPGKGLEWIGYIFYSGTTNYNPSLKSRVTISVDTSKNQFSLKLSSVTAADTAVYYCARDVGIAARNSYYYVMDVWGQGTTVTVSS
VL: AIQLTQSPSSLSASVGDRVTITCRASQGISSALAWYQQKPGKAPKFLIYGASSLESGVPSRFSGSGSGTDFTLTISSLQPEDFATYYCQQFNSYPITFGQGTRLEIKR
notes: Variant of P20

- Kd [24]: 0.26 nM
- koff [24]: 7.2e-05 s⁻¹
- kon [24]: 270000 M⁻¹ s⁻¹
- Kd [25]: 0.51 nM
- koff [25]: 0.00014 s⁻¹
- kon [25]: 280000 M⁻¹ s⁻¹
- Average IC50, LPS+IL-12 dependent IFNg production, human whole blood [19]: 1.23 nM
- Kd [26]: 0.24 nM
- koff [26]: 6.5e-05 s⁻¹
- kon [26]: 270000 M⁻¹ s⁻¹
- Kd [20]: 0.37 nM
- koff [20]: 0.00017 s⁻¹
- kon [20]: 460000 M⁻¹ s⁻¹
- Kd [21]: 13 nM
- koff [21]: 0.0031 s⁻¹
- kon [21]: 250000 M⁻¹ s⁻¹
- Kd [22]: 0.63 nM
- koff [22]: 0.00022 s⁻¹
- kon [22]: 360000 M⁻¹ s⁻¹
- Kd [23]: 8.7 nM
- koff [23]: 0.0047 s⁻¹
- kon [23]: 540000 M⁻¹ s⁻¹
- Kd [27]: 0.18 nM
- koff [27]: 4.9e-05 s⁻¹
- kon [27]: 270000 M⁻¹ s⁻¹
B3: P21-V1 (antibody, human IgG1, kappa, V domains shown)
VH: QVQLQESGPGLVKPSETLSLTCTVSGGSISNYYWTWIRQPPGKGLEWIGYISDSGSTNYNPSLKSRVTISVDTSKNQFSLKLSSVTAADTAVYYCARETIVVRGFYFYVMDVWGQGTTVTVSS
VL: AIQLTQSPSSLSASVGDRVTITCRASQGISSALAWYQQKPGKAPKLLIYEASNWESGVPSRFSGSGSGTDFTLTISSLQPEDFATYYCQQFNSYPWTFGQGTKVEIKR
notes: Variant of P21

Reference: patent publication US20250230251A1 (Bristol-Myers Squibb, published 2025)
